According to US20230135471A1 (INTEGRATED DNA TECHNOLOGIES, published 2023):

B1: CM149 (designed binder)
Ubv: MHHHHHHGGSGYLIFVRMLTGKMIELEVMPSDTIEVIKAKIQDHEGIPLDEQHLTFQGTLLDDGYTLGDYNLLIDPKKMPLLRMQ
B2: CM149-DM (designed binder)
Ubv: MHHHHHHGGSGYLIFVRMLTGKMIELEVMPSDTIEVIKAKIQDHEGIPLDEQHLTFQGTLLDDGYTLGDYNLLIDPKKMLVLRMQ
notes: also called CM210

Columns and labels:
[1] = target: MBP tagged 53BP1 fragment (a.a. 1484-1603); assay: BLI, fold change Ka of Ubv/Ka of CM1
[2] = target: MBP tagged 53BP1 fragment (a.a. 1484-1603); assay: BLI, KA (M-1), log axis

Row | Binder | binding result [1] | binding result [2]
1 | B1 | binds | 
2 | B2 |  | binds
